Test results as given in patent US10179909B2, “Non-natural amino acid tRNA synthetases for pyridyl tetrazine” (priority 2013, dated 2019).

System: GFP (K49TAG) amber (TAG) codon / orthogonal CUA-encoding suppressor tRNA
Test: CFPS based GFP K49TAG amber suppression assay
Type: biochemical, E. coli
Details: for full-length GFP expression by suppression of the TAG codon: clone titrated into CFPS reactions in the absence or presence of 4 μM non-natural amino acid; for amber suppression efficiency (levels of GFP detected): in the presence of the pyridyl-amino tetrazine compound (Formula I for 2A2, Formula II for 2A9), cell-free protein synthesis, 30° C., 12 h; for amber suppression (levels of GFP detected) without non-natural amino acid: reactions lacking the non-natural amino acid and containing the common naturally occurring amino acids
Procedure: The RS variants described herein were used to incorporate the compound of Formula I or the compound Formula II into the reporter protein Superfolder GFP. GFP containing a TAG stop codon at position 49 (GFP (K49TAG)) was expressed in a cell-free protein synthesis reaction as described in Zawada et al., 2011, Biotechnol. Bioeng., 108(7)1570-1578 with the following modifications. The cell free extracts were prepared from an OmpT sensitive RF-1 attenuated strain that was also engineered to overexpress E. coli DsbC, and a similar RF-1 attenuated E. coli strain that was engineered to produce an orthogonal CUA-encoding tRNA for insertion of a non-natural amino acid at an amber stop codon. The cell free extracts were blended (at a ratio of 85:15), and then added to a premix containing all other components of a cell-free protein synthesis system except for DNA encoding GFP (K49TAG). The final concentration in the cell-free protein synthesis reaction was 30% cell extract, with or without 2 mM non-natural amino acid (either Formula I or Formula II), 4 μM, 2 μM, 1 μM or no nnAA-specific RS variant (e.g., variant clone 1A7, 2A2, 1B7, 1B8, 2A1, 2B7, 2B5, 2A5, 2B4, 2B3, or 2A9), 8 mM magnesium glutamate, 10 mM ammonium glutamate, 130 mM potassium glutamate, 35 mM sodium pyruvate, 1.2 mM AMP, 0.86 mM each of GMP, UMP, and CMP, 2 mM amino acids (except 0.5 mM for tyrosine and phenylalanine), 4 mM sodium oxalate, 1 mM putrescine, 1.5 mM spermidine, 15 mM potassium phosphate, 100 nM T7 RNAP, 10 μg/mL GFP (K49TAG) expression template plasmid. The cell-free synthesis reactions were initiated by the addition of the plasmid DNA encoding GFP (K49TAG). The reactions were incubated at 30° C. for 12 h on a shaker at 650 rpm. After 12 hours of expression at the end point GFP fluorescence signal was measured at excitation at 476 nm, emission at 510 nm on a SpectraMax M5 fluorescence plate reader.
Similarly, clone 2A9, specific for Formula II, was titrated into the GFP-based amber supression CFPS reactions in the absence or presence of 4 μM Formula II.

Molecule	GFP levels relative to the positive GFP control reaction (reaction containing the non-natural amino acid and its specific RS clone (2A2 for Formula I, 2A9 for Formula II), control GFP has no premature stop codon)	full-length GFP expression by suppression of the TAG codon	amber suppression efficiency (levels of GFP detected)	amber suppression (levels of GFP detected) without non-natural amino acid
Cc1nnc(NCc2ccc(C[C@H](N)C(=O)O)nc2)nn1 [Formula I, (S)-2-amino-3-(5-((6-methyl-1,2,4,5-tetrazin-3-ylamino)methyl)pyridin-2-yl)propanoic acid]	comparable			
Clone 2A2: M. jannaschii TyrRS variant for Formula I: Y32L, L65V, H70A, F108W, Q109S, D158V, I159A, L162V (protein, listed as Methanococcus jannaschii, wild-type (WT) tyrosyl tRNA synthetase (TyrRS), reference sequence, M. jannaschii TyrRS variant for Formula I: Y32L, L65V, H70A, F108W, Q109S, D158V, I159A, L162V) MDEFEMIKRNTSEIISEEELREVLKKDEKSALIGFEPSGKIHLGHYLQIKKMIDLQNAGFDIIIVLADLAAYLNQKGELDEIRKIGDYNKKVFEAMGLKAKYVYGSEWSLDKDYTLNVYRLALKTTLKRARRSMELIAREDENPKVAEVIYPIMQVNVAHYVGVDVAVGGMEQRKIHMLARELLPKKVVCIHNPVLTGLDGEGKMSSSKGNFIAVDDSPEEIRAKIKKAYCPAGVVEGNPIMEIAKYFLEYPLTIKRPEKFGGDLTVNSYEELESLFKNKELHPMDLKNAVAEELIKILEPIRKRL		expressed only in the presence of the compound of Formula I	high amber suppression efficiencies	substantially no amber supression
Clone 2A9: M. jannaschii TyrRS variant for Formula II: Y32G, L65V, H70A, Q109S, D158G, L162S (protein, listed as Methanococcus jannaschii, wild-type (WT) tyrosyl tRNA synthetase (TyrRS), reference sequence, M. jannaschii TyrRS variant for Formula II: Y32G, L65V, H70A, Q109S, D158G, L162S) MDEFEMIKRNTSEIISEEELREVLKKDEKSAGIGFEPSGKIHLGHYLQIKKMIDLQNAGFDIIIVLADLAAYLNQKGELDEIRKIGDYNKKVFEAMGLKAKYVYGSEFSLDKDYTLNVYRLALKTTLKRARRSMELIAREDENPKVAEVIYPIMQVNGIHYSGVDVAVGGMEQRKIHMLARELLPKKVVCIHNPVLTGLDGEGKMSSSKGNFIAVDDSPEEIRAKIKKAYCPAGVVEGNPIMEIAKYFLEYPLTIKRPEKFGGDLTVNSYEELESLFKNKELHPMDLKNAVAEELIKILEPIRKRL		expressed only in the presence of the compound of Formula II	high amber suppression efficiencies	substantially no amber supression
